Data on 41 sequences can be found in the nanobody polyreactivity screen of Harvey et al. (2022).

This data set can be described thus: yeast display, Sf9 membrane polyspecificity reagent, FACS + sequencing; frameworks hold sequencing errors. The gist of the method:
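A synthetic nanobody library was expressed on Saccharomyces cerevisiae BJ5465 by galactose induction for 36–48 hours. The library was stained for 1 hour at 4 °C with 10% biotinylated, detergent-solubilized Sf9 membrane reagent and enriched with streptavidin microbeads before FACS. Low and high (top ~1%) gates were set on anti-HA fluorescence for expression and streptavidin fluorescence for reagent binding, and each polyreactivity label reflects the gate of origin.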
“QVQLVESGGGLVQAGGSLRFSCAASGRIFVNYAMGWYRQAPGKEREFVAAITSSGGSTYYADSVKGRFTISRDNAKNTVYLQMNSLKPEDTAVYYCAARGSLGGWGLRYYWGQGTQVTVSS”: the “polyreactivity (PSR sort gate)” value is “high polyreactivity”.

Consider “QVQLVESGGGLVQAGGSLRFSCAASGRIYYNAMGWYRQAPGKERELVAAISGSGTRTYYADSVKGRFTISRDNAKNTVFLQMNSLKPEDTAVYYCNAKFFLAATTRYYYWGQGTQVTVSS”, for which the “polyreactivity (PSR sort gate)” value is recorded as “high polyreactivity”.

As for “QVQLVESGGGLVQAGGSLRFSCAASGRTFPSKTMGLYRQAPGKERELVAAISKNGGSTYYADSVKGRFTISRDNAKNTVYLQMNSLKPEDTAVYYCNRVRYPRVDYWGQGTQVTVSS”, the “polyreactivity (PSR sort gate)” value is on record as “high polyreactivity”.

For “QVQLVESGGGLVQAGGSLRFSCAASGRTFQYYAMGWSRQAPGKERELVAAISQDGGSTYYADSVKGRFTISRDNAKNTVYLQMNSLKPEDTAVYYCAAEVWRSYGYWGQGTQVTVSS”, the “polyreactivity (PSR sort gate)” value is recorded as “low polyreactivity”.

On to “QVQLVESGGGLVQAGGSLRFSCAASGSIFDSYAMGWYRHAPGKERELVAAITWSGGITFYADSVKGRYTISRDNAKNTVYLQMNSLKPEDTAVYYCATARSYVGVGGTFVGLYDYWGQGTQVTVSS”, for which the “polyreactivity (PSR sort gate)” value is “low polyreactivity”.

Take “QVQLVESGGGLVQAGGSLRFSCAASGSIFGKNAIGWYRQAPGKERELVAAITRSGGSTYYADSVKGRFTISRDNAKNTVYLQMNSLKPEDTAVYYCNAVRVRVTSHRIRQLDYGYWGQGTQVTVSS”: the “polyreactivity (PSR sort gate)” value is “low polyreactivity”.

As to “QVQLVESGGGLVQAGGSLRFSCAASGSIFGSYAMGWYRQAPGKERELVAAITRGGGTTYYADSVKGRFTISRDNAKNTVYLQMNSLKPEDTAVYYCAAKWYHPYGPVYYWGQGTQVTVSS”, the “polyreactivity (PSR sort gate)” value is “high polyreactivity”.

For “QVQLVESGGGLVQAGGSLRFSCAASGSIFGYYSLGWYRQAPGKERELVASITFRDGSTYYADSVKGRFTISRDNAKNTVYLQMNSLKPEDTAVYYCAARYYRRYFSDYDYWGQGTQVTVSS”, the “polyreactivity (PSR sort gate)” value is on record as “low polyreactivity”.

“QVQLVESGGGLVQAGGSLRFSCAASGSIFPYAMGWSIQEPGKERELVAAITSGVRTNYADSVKGRFTISRDNAKNPVDLQMNSLKPEATEVYYCAVLPRGSNGMDYWGQGTQVTVSS”: the “polyreactivity (PSR sort gate)” value is reported as “low polyreactivity”.

For the sequence “QVQLVESGGGLVQAGGSLRFSCAASGSIFRLYAMGWYRLAPGKDRELVATLTSGGNTYADSVKGRFTISRENAKNTVYLQMNSLKPEDTAVYYCHAGQYGYYYKGYDYWGQGTQVTVSS”, the “polyreactivity (PSR sort gate)” value is reported as “high polyreactivity”.

In the case of “QVQLVESGGGLVQAGGSLRFSCAASGSIFYVYAMGWYRQAPGKERELVAAIRWSGGSTYYADSVKGRFTISRDNAKKSVYLQMNSLKPEDTAVYYCAADAIPDSVCYWEYDYWGQGTQVTVSS”, the “polyreactivity (PSR sort gate)” value was “low polyreactivity”.

Turning to “QVQLVESGGGLVQAGGSLRFSCAASGSIYRNNAIGWYRQAPGKERELVAAITSTGTGTYYADSVKGRFTISRDNAKNTVYFQMNSLKPEDTAVYYCAVDDDFEFGYWGQGTQVTVSS”, the “polyreactivity (PSR sort gate)” value is recorded as “low polyreactivity”.

Turning to “QVQLVESGGGLVQAGGSLRFSCAASGSTFGTYAMGWYRQAPGKERELVAAITSGGSTDYADSVKGRFTISRDNAKNTVYLQMNSLKPEDTAVYYCNATWELLSYYYLFWGYDYWGQGTQVTVSS”, the “polyreactivity (PSR sort gate)” value is “low polyreactivity”.

For “QVQLVESGGGLVQAGGSLRFSCAASGSTFTTNVMGWYRQAPGKERELVAAISWSSGSTYYADSVKGRFTISRDNAKNTVYLQMNSLKPEDTAVYYCAARLVIFYPYSRYYYWGQGTQVTVSS”, the “polyreactivity (PSR sort gate)” value is given as “high polyreactivity”.

Turning to “QVQLVESGGGLVQAGGSLRFSCAASGYTVGDYAMGSYRQAPGKERELVAVITRNGGRTYYADSVKGRFTISRDNAKNTVYLQMNSLKPEDTAVYYCNRDTSIRHYNYWGQGTQVTVSS”, the “polyreactivity (PSR sort gate)” value is listed as “high polyreactivity”.

Consider “QVQLVESGGGLVQAGGSLRFSCAASVFTFYSYAMGSDSQSPGKESEFVAAINQTSGSTTYADSVKGRFTISRDYGKNTVYLKMISLKPEDTAVYYCNAYQYYERYDTYLFRYDYWGQGTQVTVSS”, for which the “polyreactivity (PSR sort gate)” value was “low polyreactivity”.

In the case of “QVQLVESGGGLVQAGGSLRFSCAYSGRTFFGYAMGWYRQAPGKERELVAAITSAGGRTYYADSVKGRYTISRDNAKNTVYLQMNSLKPEYTAVYYCAATRWYYGLSAFDSWGQGTQVTVSS”, the “polyreactivity (PSR sort gate)” value is given as “high polyreactivity”.

As to “QVQLVESGGGLVQAGGSLRFSCVASGSIFRGNAKGWYRQAPGKERELVASISKGGGSTYYADSVKGRFLISRDNAKNTVYLQMNSLKPEDTAVYYCAARGGLDGIQYDYDYWGQGTQVTVSS”, the “polyreactivity (PSR sort gate)” value was “low polyreactivity”.

For “QVQLVESGGGLVQAGGSLRIICAASGRTFRGYAMGWYRQAPGKERELVAAITSGGSTNYADSVKGRFTISRDNAKNTVYLQMHSLKPEDTAVYYCNRDTSKYGLWRYIYDYWGQGTQVTVSS”, the “polyreactivity (PSR sort gate)” value is recorded as “low polyreactivity”.

For the sequence “QVQLVESGGGLVQAGGSLRIICAASGRTFSYYAMGWYRQAPGKERELVAVITSSGGSTSYADSVKGRFTISRDNAKNTVYLQMKSLKPEDTAVYYCAADPLAVSWAYYLFGVDYWGHGTQVTVSS”, the “polyreactivity (PSR sort gate)” value is given as “high polyreactivity”.

Regarding “QVQLVESGGGLVQAGGSLRIRCAASGSIFWYNAMGWYRQAPGKERELVAAISYRGGSTYYADSVKGRFTISRDNAKNTVYLQMNSLKPEDTAVYYCAAEYGDVYVWTYDYWGQGTQVTVSS”, the “polyreactivity (PSR sort gate)” value was “high polyreactivity”.

Take “QVQLVESGGGLVQAGGSLRISCAASASIFPQYALGWYRQAPGKERELVAGISGSGGGTYYADSVKGRFTISRDNAKNTVSVQIHSLKPEDTAVYYCYDYWRQGTQVTVSS”: the “polyreactivity (PSR sort gate)” value is reported as “low polyreactivity”.

With “QVQLVESGGGLVQAGGSLRISCAASDAMGWYRQAPGKERELVASISNGVSTNYADSVKGRFTISRDNAKNTVYLQMNSLKPEDTAVYYCAADAKTVGRDDLYWYEVEFDYWGQGTQVNVSS”, the “polyreactivity (PSR sort gate)” value is “low polyreactivity”.

For the sequence “QVQLVESGGGLVQAGGSLRISCAASGFAFSYYAMGWYRQAPGKEREFVASIDWSGGSTYYADSVKGRFTISRDNAKNTVYLQMNSLKPEDTAVYYCAAELDYFPGYDYWGQGTQVTVSS”, the “polyreactivity (PSR sort gate)” value was “low polyreactivity”.

Regarding “QVQLVESGGGLVQAGGSLRISCAASGFIFEQYAMGWYRQAPGKERELVARISWRGGSTYYADSVKGRFTISRDNAKNTVYLQMNSLKPEDTAVYYCAADVYTRFWRVYRFDYWGQGTQVTVSS”, the “polyreactivity (PSR sort gate)” value was “low polyreactivity”.

On to “QVQLVESGGGLVQAGGSLRISCAASGFIFKVYAMGWYRQAPGKERELVAAITSSGGSTYYADSVKGRFTISRDNAKNTVYLQMNSLIPEDTAVYYCAAQFPGVYYYIYDYWGQGTQVTVSS”, for which the “polyreactivity (PSR sort gate)” value was “high polyreactivity”.

Regarding “QVQLVESGGGLVQAGGSLRISCAASGFIFVTYAMGWYRQAPGKERELVAAITNSGGTTYYADSVKGRFTISRDNAKNTVYLQMNSLKPEDTAVYYCNKPYGAETAHREFDYWGQGTQVTVSS”, the “polyreactivity (PSR sort gate)” value is listed as “low polyreactivity”.

Regarding “QVQLVESGGGLVQAGGSLRISCAASGFTFDTNAMGWYRQAPGKERELVAAISRIGGRTYADSVKGRFTISRDNAKNTVYLQMNSLKPEDTAVYYCADDRSSAYRWRSAGYYKYDYWGQGTQVTVSS”, the “polyreactivity (PSR sort gate)” value is given as “low polyreactivity”.

“QVQLVESGGGLVQAGGSLRISCAASGFTFKAYAMGWYRLAPGKERELVAAITKSGGRTFYADSVKGRFTISRDNAKNTVYLQMNSLKPEDTAVYYCAASYTVYYWGQGTQVTVSS”: the “polyreactivity (PSR sort gate)” value is given as “high polyreactivity”.

On to “QVQLVESGGGLVQAGGSLRISCAASGFTFNANAMGWYRQAPGNERELVAAISLSGGRTYYADSVKGRFTISRDNAKNTVYLQMNSLKPEDTAVYYCAASPDGSFRRFSRVVSGDYWGQGTQVTVSS”, for which the “polyreactivity (PSR sort gate)” value was “high polyreactivity”.

Regarding “QVQLVESGGGLVQAGGSLRISCAASGFTFNKYAMGWYRQAPGKERELVAALTVSGSRTYYADSVKGRFTISRDNAKNTVYLQMNSLKPEDTAVYYCAARKWYYYLRPWTSVGGYYWGQGTQVTVSS”, the “polyreactivity (PSR sort gate)” value is “high polyreactivity”.

Turning to “QVQLVESGGGLVQAGGSLRISCAASGFTFVSNDMGWYRQAPGKERELVAAISQGGGSTYYADSVKGRFTISRDNAKNTVYLQMNSLKPEDTAVYYCAADIWARYYFWGFEHDYWGQGTQVTVSS”, the “polyreactivity (PSR sort gate)” value is on record as “low polyreactivity”.

As for “QVQLVESGGGLVQAGGSLRISCAASGFTSTYYAMGWYRPAPGTERELVAAITSSGTRTYYADSVKGRFTISRDIAKKTGYLQMNSLKPEDTAVYYCNASHRKGMYYWGLGTQVTVSS”, the “polyreactivity (PSR sort gate)” value is given as “high polyreactivity”.

Consider “QVQLVESGGGLVQAGGSLRISCAASGFTYRKNAMGWDRQAPGKERELVAAITQSSGRTYYADTVKGRFTISRDNAKNTVYLQMNSLKPEDTAVYYCAARGVWPEYDYWGQGTQVNVSS”, for which the “polyreactivity (PSR sort gate)” value is recorded as “low polyreactivity”.

As for “QVQLVESGGGLVQAGGSLRISCAASGGTFLYYAMGWYRQAPGKERELVAAISRGGSTHYADSVKGRFTISRDNAKNTVYLQMNSLKPEDTAVYYCAVDGGEFSSYGYWGQGTQVTVSS”, the “polyreactivity (PSR sort gate)” value is “low polyreactivity”.

Turning to “QVQLVESGGGLVQAGGSLRISCAASGIIFPQYTMGWYRPAPGKERELVAVITSGGSTYYADSVKGRFTISRDNAKNTVYLQMNSLNPEDTAVYYCAAETETYWWTFITREYDYWGQGTQVTVSS”, the “polyreactivity (PSR sort gate)” value is “high polyreactivity”.

For “QVQLVESGGGLVQAGGSLRISCAASGIIFYTYVMGWYRQAPGKEREFVAGISTSGGRTDYADSVKGRFTISRDNAKNTVYLQMNSLKPEDTAVYYCNADYWQWYSYWYDYWGQGTQVTVSS”, the “polyreactivity (PSR sort gate)” value is listed as “high polyreactivity”.

Take “QVQLVESGGGLVQAGGSLRISCAASGINFSVNAMGWYRQAPGKERELVAAITYSGGSTYYADSVKGRFTISRDNAKNTVYLQMNSLKPEDTAVYYCAAETYSSGEWYDYWGQGTQVTVSS”: the “polyreactivity (PSR sort gate)” value is “high polyreactivity”.

Turning to “QVQLVESGGGLVQAGGSLRISCAASGITFVYYDMAWYRQAPGKDSELVAAISGGGSTNYADSVKGRFTISRDNAKNTVYLQRKSLKPEDTAVYYCNAELYYGDEGDSWGQGTLVTVSS”, the “polyreactivity (PSR sort gate)” value was “low polyreactivity”.

“QVQLVESGGGLVQAGGSLRISCAASGITFYRYAMGWYRQAPGKEREFVAAINYGGSSTRYADSVKGRFTISRDNAKITVYLQMNSLKPEDTAVYYCAKVELARVEYDYWGQGTQVTVSS”: the “polyreactivity (PSR sort gate)” value is “low polyreactivity”.

Consider “QVQLVESGGGLVQAGGSLRISCAASGLTFFRNAIGWYRQATGKERELVATITSTSSTNYADSVKVRFTISRDNSKNTVYLQMNSLKPEDTAVYYCAARTVGRKAGFDYWGQGTQVTVSS”, for which the “polyreactivity (PSR sort gate)” value was “high polyreactivity”.
